± gives the standard deviation of the averaged measurements.
Test: total protein half-life in vivo (active degradation + dilution); higher = more stable protein
[1] = E. coli NCM3722 delta-clpP, growth: N-lim chemostat, doubling time 6 h
[2] = E. coli NCM3722 delta-hslV, growth: N-lim chemostat, doubling time 6 h
[3] = E. coli NCM3722 delta-lon, growth: N-lim chemostat, doubling time 6 h
[4] = E. coli NCM3722 delta-smpB, growth: N-lim chemostat, doubling time 6 h
[5] = wild type E. coli NCM3722, growth: C-lim chemostat, doubling time 3 h
[6] = wild type E. coli NCM3722, growth: C-lim chemostat, doubling time 6 h
[7] = wild type E. coli NCM3722, growth: C-lim chemostat, doubling time 12 h
[8] = wild type E. coli NCM3722, growth: N-lim chemostat, doubling time 6 h
[9] = wild type E. coli NCM3722, growth: N-lim chemostat, doubling time 12 h
[10] = wild type E. coli NCM3722, growth: P-lim chemostat, doubling time 6 h
[11] = wild type E. coli NCM3722, growth: P-lim chemostat, doubling time 12 h
[12] = E. coli NCM3722 delta-clpP delta-lon delta-hslV, growth: N-lim chemostat, doubling time 6 h

| Sequence | total protein half-life in vivo [1] [h] | total protein half-life in vivo [2] [h] | total protein half-life in vivo [3] [h] | total protein half-life in vivo [4] [h] | total protein half-life in vivo [5] [h] | total protein half-life in vivo [6] [h] | total protein half-life in vivo [7] [h] | total protein half-life in vivo [8] [h] | total protein half-life in vivo [9] [h] | total protein half-life in vivo [10] [h] | total protein half-life in vivo [11] [h] | total protein half-life in vivo [12] [h] |
| --- | --- | --- | --- | --- | --- | --- | --- | --- | --- | --- | --- | --- |
| MTNNPPSAQIKPGEYGFPLKLKARYDNFIGGEWVAPADGEYYQNLTPVTGQLLCEVASSGKRDIDLALDAAHKVKDKWAHTSVQDRAAILFKIADRMEQNLELLATAETWDNGKPIRETSAADVPLAIDHFRYFASCIRAQEGGISEVDSETVAYHFHEPLGVVGQIIPWNFPLLMASWKMAPALAAGNCVVLKPARLTPLSVLLLMEIVGDLLPPGVVNVVNGAGGVIGEYLATSKRIAKVAFTGSTEVGQQIMQYATQNIIPVTLELGGKSPNIFFADVMDEEDAFFDKALEGFALFAFNQGEVCTCPSRALVQESIYERFMERAIRRVESIRSGNPLDSVTQMGAQVSHGQLETILNYIDIGKKEGADVLTGGRRKLLEGELKDGYYLEPTILFGQNNMRVFQEEIFGPVLAVTTFKTMEEALELANDTQYGLGAGVWSRNGNLAYKMGRGIQAGRVWTNCYHAYPAHAAFGGYKQSGIGRETHKMMLEHYQQTKCLLVSYSDKPLGLF | 4.04 ± 0.7 | 2.42 ± 0.5 | 2.83 ± 0.035 | 2.42 ± 0.14 | 2.73 ± 0.41 | 5.1 ± 0.31 | 7.87 ± 0.019 | 2.77 ± 0.77 | 4.07 ± 0.55 | 3.08 ± 1.1 | 6.36 ± 0.73 |  |
| MQSERIYLVWAHPRHDSLTAHIADAIHQRAMERKIQVTELDLYRRNFNPVMTPEDEPDWKNMDKRYSPEVHQLYSELLEHDTLVVVFPLWWYSFPAMLKGYIDRVWNNGLAYGDGHKLPFNKVRWVALVGGDKESFVQMGWEKNISDYLKNMCSYLGIEDADVTFLCNTVVFDGEELHASYYQSLLSQVRDMVDAL | 4.52 ± 0.47 | 4 | 4.84 ± 0.22 | 4.07 ± 0.28 | 2.98 ± 0.16 | 6.87 ± 1.5 | 9.75 ± 0.92 | 4.62 ± 0.12 | 7.48 ± 1 | 5.643 ± 0.052 | 11.5 ± 1.1 |  |
| MAISIKTPEDIEKMRVAGRLAAEVLEMIEPYVKPGVSTGELDRICNDYIVNEQHAVSACLGYHGYPKSVCISINEVVCHGIPDDAKLLKDGDIVNIDVTVIKDGFHGDTSKMFIVGKPTIMGERLCRITQESLYLALRMVKPGINLREIGAAIQKFVEAEGFSVVREYCGHGIGRGFHEEPQVLHYDSRETNVVLKPGMTFTIEPMVNAGKKEIRTMKDGWTVKTKDRSLSAQYEHTIVVTDNGCEILTLRKDDTIPAIISHDE [P0AE18] | 4.545 ± 0.041 | 4.71 ± 0.14 | 5.3 ± 0.74 | 4.36 ± 0.17 | 3.53 ± 0.17 | 5.52 ± 0.18 | 10.4 ± 0.64 | 4.42 ± 0.58 | 6.93 ± 0.49 | 6.04 ± 0.15 | 12.19 ± 0.095 | 5.22 ± 1 |
| MNTNVFRLLLLGSLFSLSACVQQSEVRQMKHSVSTLNQEMTQLNQETVKITQQNRLNAKSSSGVYLLPGAKTPARLESQIGTLRMSLVNITPDADGTTLTLRIQGESNDPLPAFSGTVEYGQIQGTIDNFQEINVQNQLINAPASVLAPSDVDIPLQLKGISVDQLGFVRIHDIQPVMQ |  |  | 6.77 ± 0.76 | 6.22 ± 0.65 |  | 5.54 ± 0.6 | 11.3 | 5.64 ± 1.1 | 13.9 | 6.02 ± 0.69 | 12.7 ± 1.5 | 6.62 ± 0.76 |
| MNKAKRLEILTRLRENNPHPTTELNFSSPFELLIAVLLSAQATDVSVNKATAKLYPVANTPAAMLELGVEGVKTYIKTIGLYNSKAENIIKTCRILLEQHNGEVPEDRAALEALPGVGRKTANVVLNTAFGWPTIAVDTHIFRVCNRTQFAPGKNVEQVEEKLLKVVPAEFKVDCHHWLILHGRYTCIARKPRCGSCIIEDLCEYKEKVDI [P0AB83] | 5.67 ± 0.41 | 5.9 ± 0.36 |  | 5.611 ± 0.039 | 3.22 ± 0.093 | 5.58 ± 0.078 | 10.7 ± 0.51 | 5.79 ± 0.092 | 11.95 ± 0.045 | 5.88 ± 0.55 | 10.9 ± 0.86 | 5.59 ± 0.65 |
| MRLRKYNKSLGWLSLFAGTVLLSGCNSALLDPKGQIGLEQRSLILTAFGLMLIVVIPAILMAVGFAWKYRASNKDAKYSPNWSHSNKVEAVVWTVPILIIIFLAVLTWKTTHALEPSKPLAHDEKPITIEVVSMDWKWFFIYPEQGIATVNEIAFPANTPVYFKVTSNSVMNSFFIPRLGSQIYAMAGMQTRLHLIANEPGTYDGISASYSGPGFSGMKFKAIATPDRAAFDQWVAKAKQSPNTMSDMAAFEKLAAPSEYNQVEYFSNVKPDLFADVINKFMAHGKSMDMTQPEGEHSAHEGMEGMDMSHAESAH [P0ABJ1] |  | 6.43 ± 0.55 | 6.06 ± 0.16 | 5.63 ± 0.44 |  | 7.01 ± 0.81 |  | 6.11 ± 0.29 |  | 5.85 ± 0.097 | 11.98 ± 0.095 | 5.81 ± 1.2 |
| MRIEEDLKLGFKDVLIRPKRSTLKSRSDVELERQFTFKHSGQSWSGVPIIAANMDTVGTFSMASALASFDILTAVHKHYSVEEWQAFINNSSADVLKHVMVSTGTSDADFEKTKQILDLNPALNFVCIDVANGYSEHFVQFVAKAREAWPTKTICAGNVVTGEMCEELILSGADIVKVGIGPGSVCTTRVKTGVGYPQLSAVIECADAAHGLGGMIVSDGGCTTPGDVAKAFGGGADFVMLGGMLAGHEESGGRIVEENGEKFMLFYGMSSESAMKRHVGGVAEYRAAEGKTVKLPLRGPVENTARDILGGLRSACTYVGASRLKELTKRTTFIRVQEQENRIFNNL | 4.46 ± 0.16 | 4.34 ± 0.1 | 5.46 ± 0.17 | 4.22 ± 0.21 | 2.77 ± 0.19 | 6.13 ± 0.25 | 9.9351 ± 0.0054 | 4.71 ± 0.14 | 7.56 ± 0.75 | 6.2 ± 0.3 | 11 ± 0.55 | 6.23 ± 0.89 |
| MIEQFFRPDSVEQALELKRRYQDEAVWFAGGSKLNATPTRTDKKIAISLQDLELDWVDWDNGALRIGAMSRLQPLRDARFIPAALREALGFVYSRHVRNQSTIGGEIAARQEESVLLPVLLALDAELVFGNGETLSIEDYLACPCDRLLTEIIIKDPYRTCATRKISRSQAGLTVVTAAVAMTDHDGMRIALDGVASKALRLHDVEKQNLEGNALEQAVANAIFPQEDLRGSVAYKRYITGVLVADLYADCQQAGEEAV |  |  | 0.974 |  |  |  |  |  |  |  |  |  |

From the supplement of paper PMC11246515
